The chains are these.
B1: 348-H4-357-L4 (antibody, human IgG1, kappa, V domains shown)
VH: QVQLVQSGAEVKKPGASVKVSCKASGYTFTHYSMHWVRQAPGQGLEWMGWINTYTGEPTYADDFKGRFVFSLDTSVSTAYLQLSSLKAEDTAVYYCATYYRYERDFDYWGQGTLVTVSS
VL: DIVMTQSPLSLPVTPGEPASISCRSSQSIVHSSGITYLEWYLQKPGQSPQLLIYKVSNRFSGVPDRFSGSGSGTDFTLKISRVEAEDVGVYYCFQGSHVPYTFGQGTKVEIKR
notes: human IgG1 / kappa; also called antibody of humanized heavy chain of SH348-1 and humanized light chain of SH357-1; swapped antibody
B2: 348-H4-357-L5 (antibody, human IgG1, kappa, V domains shown)
VH: QVQLVQSGAEVKKPGASVKVSCKASGYTFTHYSMHWVRQAPGQGLEWMGWINTYTGEPTYADDFKGRFVFSLDTSVSTAYLQLSSLKAEDTAVYYCATYYRYERDFDYWGQGTLVTVSS
VL: DVLMTQSPLSLPVTPGEPASISCRSSQSIVHSSGITYLEWYLQKPGQSPKLLIYKVSNRFSGVPDRFSGSGSGTDFTLKISRVEAEDVGVYYCFQGSHVPYTFGQGTKVEIKR
notes: human IgG1 / kappa
B3: 348-H5-357-L4 (antibody, human IgG1, kappa, V domains shown)
VH: QVQLVQSGAEVKKPGASVKVSCKASGYTFTHYSMHWVKQAPGQGLKWMGWINTYTGEPTYADDFKGRFAFSLETSVSTAYLQLSSLKAEDTAVYFCATYYRYERDFDYWGQGTLVTVSS
VL: DIVMTQSPLSLPVTPGEPASISCRSSQSIVHSSGITYLEWYLQKPGQSPQLLIYKVSNRFSGVPDRFSGSGSGTDFTLKISRVEAEDVGVYYCFQGSHVPYTFGQGTKVEIKR
notes: human IgG1 / kappa
B4: 348-H5-357-L5 (antibody, human IgG1, kappa, V domains shown)
VH: QVQLVQSGAEVKKPGASVKVSCKASGYTFTHYSMHWVKQAPGQGLKWMGWINTYTGEPTYADDFKGRFAFSLETSVSTAYLQLSSLKAEDTAVYFCATYYRYERDFDYWGQGTLVTVSS
VL: DVLMTQSPLSLPVTPGEPASISCRSSQSIVHSSGITYLEWYLQKPGQSPKLLIYKVSNRFSGVPDRFSGSGSGTDFTLKISRVEAEDVGVYYCFQGSHVPYTFGQGTKVEIKR
notes: human IgG1 / kappa

The target in this assay is T1, His-Fibronectin type III domain (426-540) (human, UniProt P29317 426-540).
T1 construct: also called His-Fibrinctin type III domain (426-540); Fibronectin type III domain of EPHA2; not shown: histidine tag added to the amino terminus
T1 sequence (P29317 426-540): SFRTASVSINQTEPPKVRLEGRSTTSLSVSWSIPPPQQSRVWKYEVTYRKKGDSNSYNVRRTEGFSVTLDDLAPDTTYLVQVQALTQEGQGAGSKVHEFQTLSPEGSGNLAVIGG
The assay is described as follows: SPR (Biacore T100), antibody captured on anti-human IgG(Fc), antigen as analyte, 1:1 model. A general note: SPR reads the build-up and loss of mass on a sensor chip optically.
The Kd is the equilibrium constant for the complex coming apart. Lower therefore signals tighter binding. Molecule B1 returned a Kd of 370 pM.

For the molecule B2, binding was put at a Kd of 370 pM.

Turning to B3, the Kd is 320 pM.

Regarding B4, binding was characterised by a dissociation constant (Kd) of 300 pM. The Kd values of the last two molecules are within 1.5-fold of each other.

Values taken from patent WO2012008397A1 (dated 2012).
